Literature values in article PMC3708895.
pKd: −log10 of the molar value.

Biological target: T4 capsid (gp23) (Escherichia virus T4) (UniProt P04535)
UniProt P04535, sequence (P04535 66-521): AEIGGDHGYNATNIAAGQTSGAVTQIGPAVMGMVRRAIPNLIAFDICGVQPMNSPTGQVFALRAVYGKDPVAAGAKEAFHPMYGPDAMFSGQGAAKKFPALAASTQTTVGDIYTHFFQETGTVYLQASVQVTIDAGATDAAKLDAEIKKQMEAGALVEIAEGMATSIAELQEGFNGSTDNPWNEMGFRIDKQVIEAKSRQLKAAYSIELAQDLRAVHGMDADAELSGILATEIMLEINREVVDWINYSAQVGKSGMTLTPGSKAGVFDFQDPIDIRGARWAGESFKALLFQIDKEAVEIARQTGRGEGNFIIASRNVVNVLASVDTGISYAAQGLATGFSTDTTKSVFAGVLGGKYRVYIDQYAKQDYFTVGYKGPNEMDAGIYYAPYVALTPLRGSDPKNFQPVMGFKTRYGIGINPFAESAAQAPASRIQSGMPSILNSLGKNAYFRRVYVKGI

Soc (from UniProt P03715)
pKd: 7.12
